US20150344570A1 (published 2015)

T1: FcγRIIb (human, UniProt P31994 43-217)
T1 construct: extracellular domain; Soluble extracellular domain with C-terminal His tag, used as analyte in Biacore; also called FcgRIIb; 2b; not shown: His tag attached to the C terminus
T1 sequence (looked up): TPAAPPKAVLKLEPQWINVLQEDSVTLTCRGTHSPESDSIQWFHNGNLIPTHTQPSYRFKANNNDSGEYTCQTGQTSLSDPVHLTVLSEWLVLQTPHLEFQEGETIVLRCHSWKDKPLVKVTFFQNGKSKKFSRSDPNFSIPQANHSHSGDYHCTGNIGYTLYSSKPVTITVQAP


Legend:
FcγRIa = target: T2, FcγRIa (human, UniProt P12314 16-292); experiment: SPR (Biacore), antibody captured, FcγR as analyte; relative to GpH7-A5/GpH7-B3/GpL16-k0 = 100
T2 construct: extracellular domain; Soluble extracellular domain with C-terminal His tag, used as analyte in Biacore; also called FcgRI; 1a; not shown: His tag attached to the C terminus
Experimental: (§1) The heterodimerized antibodies He Abs in which one of the H chains was introduced with an alteration were assayed for their binding activities to each activating FcγR and inhibitory FcγR according to the method described in Example 4. […] The activating FcγRs in FIGS. 26, 27, 28, and 29 are FcγRIa, FcγRIIa (R), FcγRIIa (H), and FcγRIIIa, respectively.
(§2) Analysis of interaction between objective antibody and the FcγR was carried out using Biacore T100 (GE Healthcare). HBS-EP+ (GE Healthcare) was used as the running buffer, and the measurement temperature was set to 25° C. Chips produced by immobilizing the antigen peptide by the amine coupling method to a Series S Sencor Chip CM5 (GE Healthcare), or alternatively, chips produced by allowing preliminarily biotinylated antigen peptides to interact with and immobilize onto a Series S Sensor Chip SA (certified) (GE Healthcare) were used. Antibodies of interest were captured onto an antigen peptide-immobilized chip, and allowed to interact to each FcγR diluted with running buffer. To regenerate and repeatedly use the chip, the antibodies captured on the chip were washed off by reacting 10 mM glycine-HCl, pH 1.5.

FcγRIIb = target: T1, FcγRIIb; experiment: as above
Experimental: as §1, §2

T2 sequence (P12314 16-292): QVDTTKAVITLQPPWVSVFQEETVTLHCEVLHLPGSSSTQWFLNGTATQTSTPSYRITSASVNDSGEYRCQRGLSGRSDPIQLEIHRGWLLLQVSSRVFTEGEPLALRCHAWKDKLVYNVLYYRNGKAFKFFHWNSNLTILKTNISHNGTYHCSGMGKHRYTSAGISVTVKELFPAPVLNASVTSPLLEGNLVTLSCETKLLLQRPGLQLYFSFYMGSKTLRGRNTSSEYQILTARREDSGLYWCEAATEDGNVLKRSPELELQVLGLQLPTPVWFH

Row | Binder | He/Con_1a (FcγRIa) | He/Con_2b (FcγRIIb)
1 | GpH7-A5/GpH7-B3 variant P238_16H/GpL16-k0 (antibody, human IgG1, kappa, Heterodimerized anti-glypican-3 IgG1; alteration in the GpH7-B3 chain only; also called He Ab) heavy 1: not shown heavy 2: not shown light: DIVMTQSPLSLPVTPGEPASISCQASESLVHSNRNTYLHWYLQKPGQSPQLLIYKVSNRFSGVPDRFSGSGSGTDFTLKISRVEAEDVGVYYCSQNTHVPPTFGQGTKVEIERTVAAPSVFIFPPSDEQLKSGTASVVCLLNNFYPREAKVQWKVDNALQSGNSQESVTEQDSKDSTYSLSSTLTLSKADYEKHKVYACEVTHQGLSSPVTKSFNRGEC | 96 % of control (=100) | 115 % of control (=100)
2 | GpH7-A5/GpH7-B3 variant P331_10E/GpL16-k0 (antibody, human IgG1, kappa, Heterodimerized anti-glypican-3 IgG1; alteration in the GpH7-B3 chain only; also called He Ab) heavy 1: not shown heavy 2: not shown light: DIVMTQSPLSLPVTPGEPASISCQASESLVHSNRNTYLHWYLQKPGQSPQLLIYKVSNRFSGVPDRFSGSGSGTDFTLKISRVEAEDVGVYYCSQNTHVPPTFGQGTKVEIERTVAAPSVFIFPPSDEQLKSGTASVVCLLNNFYPREAKVQWKVDNALQSGNSQESVTEQDSKDSTYSLSSTLTLSKADYEKHKVYACEVTHQGLSSPVTKSFNRGEC | 95 % of control (=100) | 116 % of control (=100)
3 | GpH7-A5/GpH7-B3 variant N325_20W/GpL16-k0 (antibody, human IgG1, kappa, Heterodimerized anti-glypican-3 IgG1; alteration in the GpH7-B3 chain only; also called He Ab) heavy 1: not shown heavy 2: not shown light: DIVMTQSPLSLPVTPGEPASISCQASESLVHSNRNTYLHWYLQKPGQSPQLLIYKVSNRFSGVPDRFSGSGSGTDFTLKISRVEAEDVGVYYCSQNTHVPPTFGQGTKVEIERTVAAPSVFIFPPSDEQLKSGTASVVCLLNNFYPREAKVQWKVDNALQSGNSQESVTEQDSKDSTYSLSSTLTLSKADYEKHKVYACEVTHQGLSSPVTKSFNRGEC | 93.8 % of control (=100) | 169 % of control (=100)
4 | GpH7-A5/GpH7-B3 variant P238_19Q/GpL16-k0 (antibody, human IgG1, kappa, Heterodimerized anti-glypican-3 IgG1; alteration in the GpH7-B3 chain only; also called He Ab) heavy 1: not shown heavy 2: not shown light: DIVMTQSPLSLPVTPGEPASISCQASESLVHSNRNTYLHWYLQKPGQSPQLLIYKVSNRFSGVPDRFSGSGSGTDFTLKISRVEAEDVGVYYCSQNTHVPPTFGQGTKVEIERTVAAPSVFIFPPSDEQLKSGTASVVCLLNNFYPREAKVQWKVDNALQSGNSQESVTEQDSKDSTYSLSSTLTLSKADYEKHKVYACEVTHQGLSSPVTKSFNRGEC | 97.6 % of control (=100) | 110 % of control (=100)
5 | GpH7-A5/GpH7-B3 variant P331_03V/GpL16-k0 (antibody, human IgG1, kappa, Heterodimerized anti-glypican-3 IgG1; alteration in the GpH7-B3 chain only; also called He Ab) heavy 1: not shown heavy 2: not shown light: DIVMTQSPLSLPVTPGEPASISCQASESLVHSNRNTYLHWYLQKPGQSPQLLIYKVSNRFSGVPDRFSGSGSGTDFTLKISRVEAEDVGVYYCSQNTHVPPTFGQGTKVEIERTVAAPSVFIFPPSDEQLKSGTASVVCLLNNFYPREAKVQWKVDNALQSGNSQESVTEQDSKDSTYSLSSTLTLSKADYEKHKVYACEVTHQGLSSPVTKSFNRGEC | 92 % of control (=100) | 119 % of control (=100)
6 | GpH7-A5/GpH7-B3 variant S239_05P/GpL16-k0 (antibody, human IgG1, kappa, Heterodimerized anti-glypican-3 IgG1; alteration in the GpH7-B3 chain only; also called He Ab) heavy 1: not shown heavy 2: not shown light: DIVMTQSPLSLPVTPGEPASISCQASESLVHSNRNTYLHWYLQKPGQSPQLLIYKVSNRFSGVPDRFSGSGSGTDFTLKISRVEAEDVGVYYCSQNTHVPPTFGQGTKVEIERTVAAPSVFIFPPSDEQLKSGTASVVCLLNNFYPREAKVQWKVDNALQSGNSQESVTEQDSKDSTYSLSSTLTLSKADYEKHKVYACEVTHQGLSSPVTKSFNRGEC | 85.3 % of control (=100) | 102 % of control (=100)
7 | GpH7-A5/GpH7-B3 variant S324_06M/GpL16-k0 (antibody, human IgG1, kappa, Heterodimerized anti-glypican-3 IgG1; alteration in the GpH7-B3 chain only; also called He Ab) heavy 1: not shown heavy 2: not shown light: DIVMTQSPLSLPVTPGEPASISCQASESLVHSNRNTYLHWYLQKPGQSPQLLIYKVSNRFSGVPDRFSGSGSGTDFTLKISRVEAEDVGVYYCSQNTHVPPTFGQGTKVEIERTVAAPSVFIFPPSDEQLKSGTASVVCLLNNFYPREAKVQWKVDNALQSGNSQESVTEQDSKDSTYSLSSTLTLSKADYEKHKVYACEVTHQGLSSPVTKSFNRGEC | 99.2 % of control (=100) | 112 % of control (=100)
8 | GpH7-A5/GpH7-B3 variant S239_03V/GpL16-k0 (antibody, human IgG1, kappa, Heterodimerized anti-glypican-3 IgG1; alteration in the GpH7-B3 chain only; also called He Ab) heavy 1: not shown heavy 2: not shown light: DIVMTQSPLSLPVTPGEPASISCQASESLVHSNRNTYLHWYLQKPGQSPQLLIYKVSNRFSGVPDRFSGSGSGTDFTLKISRVEAEDVGVYYCSQNTHVPPTFGQGTKVEIERTVAAPSVFIFPPSDEQLKSGTASVVCLLNNFYPREAKVQWKVDNALQSGNSQESVTEQDSKDSTYSLSSTLTLSKADYEKHKVYACEVTHQGLSSPVTKSFNRGEC | 95.9 % of control (=100) | 108 % of control (=100)
9 | GpH7-A5/GpH7-B3 variant P331_15Y/GpL16-k0 (antibody, human IgG1, kappa, Heterodimerized anti-glypican-3 IgG1; alteration in the GpH7-B3 chain only; also called He Ab) heavy 1: not shown heavy 2: not shown light: DIVMTQSPLSLPVTPGEPASISCQASESLVHSNRNTYLHWYLQKPGQSPQLLIYKVSNRFSGVPDRFSGSGSGTDFTLKISRVEAEDVGVYYCSQNTHVPPTFGQGTKVEIERTVAAPSVFIFPPSDEQLKSGTASVVCLLNNFYPREAKVQWKVDNALQSGNSQESVTEQDSKDSTYSLSSTLTLSKADYEKHKVYACEVTHQGLSSPVTKSFNRGEC | 96 % of control (=100) | 114 % of control (=100)
